Laboratory results as given in article PMC10682658, “Revisiting bacterial cytolethal distending toxin structure and function” (Frontiers in Cellular and Infection Microbiology, 2023).

T1: NTA-labeled Cj-CdtA (polyhistidine-tagged Cj-CdtA labelled with NTA fluorescent dye) (Campylobacter jejuni, UniProt A1VXG4 20-268, NTA - Atto 647 N dye on the polyhistidine-tagged subunit)
T1 construct: source: recombinant, generated and purified as previously described (Eshraghi et al., 2010)
T1 sequence: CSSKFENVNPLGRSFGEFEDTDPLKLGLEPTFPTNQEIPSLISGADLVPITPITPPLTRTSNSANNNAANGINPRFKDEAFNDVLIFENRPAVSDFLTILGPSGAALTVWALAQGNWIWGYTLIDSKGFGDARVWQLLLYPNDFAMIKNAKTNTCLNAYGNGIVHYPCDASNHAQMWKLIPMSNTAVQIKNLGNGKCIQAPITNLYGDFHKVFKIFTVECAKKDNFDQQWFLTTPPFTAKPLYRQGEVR


Experiments:
[1] = biological target: T2, NTA-labeled Cj-CdtB (polyhistidine-tagged Cj-CdtB labelled with NTA fluorescent dye) (Campylobacter jejuni, UniProt Q0PC57 1-265, NTA - Atto 647 N dye on the polyhistidine-tagged subunit); test: MST; NTA dye-labeled polyhistidine-tagged subunit (0.1 μM) with unlabeled subunit without polyhistidine tag (0.02/0.04-20 μM), 1 h at 37°C, read at 37°C; Monolith NT.115; fraction bound fit to log [Cj-CDT subunit] vs response; KD of A + B* called apparent; conditions: both partners purified
T2 construct: source: recombinant, generated and purified as previously described (Eshraghi et al., 2010)

[2] = biological target: T1, NTA-labeled Cj-CdtA …; test: as above; conditions: both partners purified

Row | Binder | Kd [1] [nM] | first concentration of titrant yielding detectable signal above background [1] [µM] | Kd [2] [nM] | first concentration of titrant yielding detectable signal above background [2] [µM]
1 | unlabeled Cj-CdtA with the polyhistidine tag removed (natural protein, source: recombinant, generated and purified as previously described (Eshraghi et al., 2010); polyhistidine removed with biotinylated thrombin) CSSKFENVNPLGRSFGEFEDTDPLKLGLEPTFPTNQEIPSLISGADLVPITPITPPLTRTSNSANNNAANGINPRFKDEAFNDVLIFENRPAVSDFLTILGPSGAALTVWALAQGNWIWGYTLIDSKGFGDARVWQLLLYPNDFAMIKNAKTNTCLNAYGNGIVHYPCDASNHAQMWKLIPMSNTAVQIKNLGNGKCIQAPITNLYGDFHKVFKIFTVECAKKDNFDQQWFLTTPPFTAKPLYRQGEVR | > 20000 | 2 | – | –
2 | unlabeled Cj-CdtC with the polyhistidine tag removed (natural protein, source: recombinant, generated and purified as previously described (Eshraghi et al., 2010); polyhistidine removed with biotinylated thrombin) TPTGDLKDFTEMVSIRSLETGIFLSAFRDTSKDPIDQNWNIKEIVLSDELKQKDKLADELPFGYVQFTNPKESDLCLAILEDGTFGAKSCQDDLKDGKLETVFSIMPTTTSAVQIRSLVLESDECIVTFFNPNIPIQKRFGIAPCTLDPIFFAEVNELMIITPPLTAATPLE | 480 ± 100 | 0.15 | 650 ± 100 | 0.31
